Source: US20080300206

How the values were obtained:
[1] = biological target: recombinant wild-type human alpha-synuclein
[2] = biological target: alpha synuclein familial mutant E46K
[3] = biological target: alpha synuclein familial mutant A30P
[4] = biological target: alpha synuclein familial mutant A53T

Sequence of beta synuclein, Q16143 (Q16143 whole entry): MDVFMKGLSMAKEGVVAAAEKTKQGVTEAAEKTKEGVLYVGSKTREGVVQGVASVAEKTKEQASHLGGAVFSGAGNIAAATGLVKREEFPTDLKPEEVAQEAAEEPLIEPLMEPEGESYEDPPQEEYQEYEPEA

B1: PLK4 (protein)
chain: MATCIGEKIEDFKVGNLLGKGSFAGVYRAESIHTGLEVAIKMIDKKAMYKAGMVQRVQNEVKIHCQLKHPSILELYNYFEDSNYVYLVLEMCHNGEMNRYLKNRVKPFSENEARHFMHQIITGMLYLHSHGILHRDLTLSNLLLTRNMNIKIADFGLATQLKMPHEKHYTLCGTPNYISPEIATRSAHGLESDVWSLGCMFYTLLIGRPPFDTDTVKNTLNKVVLADYEMPSFLSIEAKDLIHQLLRRNPADRLSLSSVLDHPFMSRNSSTKSKDLGTVEDSIDSGHATISTAITASSSTSISGSLFDKRRLLIGQPLPNKMTVFPKNKSSTDFSSSGDGNSFYTQWGNQETSNSGRGRVIQDAEERPHSRYLRRAYSSDRSGTSNSQSQAKTYTMERCHSAEMLSVSKRSGGGENEERYSPTDNNANIFNFFKEKTSSSSGSFERPDNNQALSNHLCPGKTPFPFADPTPQTETVQQWFGNLQINAHLRKTTEYDSISPNRDFQGHPDLQKDTSKNAWTDTKVKKNSDASDNAHSVKQQNTMKYMTALHSKPEIIQQECVFGSDPLSEQSKTRGMEPPWGYQNRTLRSITSPLVAHRLKPIRQKTKKAVVSILDSEEVCVELVKEYASQEYVKEVLQISSDGNTITIYYPNGGRGFPLADRPPSPTDNISRYSFDNLPEKYWRKYQYASRFVQLVRSKSPKITYFTRYAKCILMENSPGADFEVWFYDGVKIHKTEDFIQVIEKTGKSYTLKSESEVNSLKEEIKMYMDHANEGHRICLALESIISEEERKTRSAPFFPIIIGRKPGSTSSPKALSPPPSVDSNYPTRERASFNRMVMHSAASPTQAPILNPSMVTNEGLGLTTTASGTDISSNSLKDCLPKSAQLLKSVFVKNVGWATQLTSGAVWVQFNDGSQLVVQAGVSSISYTSPNGQTTRYGENEKLPDYIKQKLQCLSSILLMFSNPTPNFH
- Fold Change in Percent Synuclein Phosphorylation, HEK-293 overexpression [1]: 1 fold
- Proportion of total synuclein that is phoshorylated at ser-129, HEK-293 overexpression, ELISA [1]: 1.9%
- in vitro biochemical assay, phosphorylation of synuclein [1]: PLK4 exhibiting no ability to phosphorylate synuclein

B2: IKBKB (protein)
chain: MSWSPSLTTQTCGAWEMKERLGTGGFGNVIRWHNQETGEQIAIKQCRQELSPRNRERWCLEIQIMRRLTHPNVVAARDVPEGMQNLAPNDLPLLAMEYCQGGDLRKYLNQFENCCGLREGAILTLLSDIASALRYLHENRIIHRDLKPENIVLQQGEQRLIHKIIDLGYAKELDQGSLCTSFVGTLQYLAPELLEQQKYTVTVDYWSFGTLAFECITGFRPFLPNWQPVQWHSKVRQKSEVDIVVSEDLNGTVKFSSSLPYPNNLNSVLAERLEKWLQLMLMWHPRQRGTDPTYGPNGCFKALDDILNLKLVHILNMVTGTIHTYPVTEDESLQSLKARIQQDTGIPEEDQELLQEAGLALIPDKPATQCISDGKLNEGHTLDMDLVFLFDNSKITYETQISPRPQPESVSCILQEPKRNLAFFQLRKVWGQVWHSIQTLKEDCNRLQQGQRAAMMNLLRNNSCLSKMKNSMASMSQQLKAKLDFFKTSIQIDLEKYSEQTEFGITSDKLLLAWREMEQAVELCGRENEVKLLVERMMALQTDIVDLQRSPMGRKQGGTLDDLEEQARELYRRLREKPRDQRTEGDSQEMVRLLLQAIQSFEKKVRVIYTQLSKTVVCKQKALELLPKVEEVVSLMNEDEKTVVRLQEKRQKELWNLLKIACSKVRGPVSGSPDSMNASRLSQPGQLMSQPSTASNSLPEPAKKSEELVAEAHNLCTLLENAIQDTVREQDQSFTALDWSWLQTEEEEHSCLEQAS
- in vitro kinase reaction, phosphorylation of alpha-synuclein [1]: shown to be incapable of directly phosphorylating alpha-synuclein

B3: Polo like kinase 2 (PLK2) (protein)
chain: MELLRTITYQPAASTKMCEQALGKGCGADSKKKRPPQPPEESQPPQSQAQVPPAAPHHHHHHSHSGPEISRIIVDPTTGKRYCRGKVLGKGGFAKCYEMTDLTNNKVYAAKIIPHSRVAKPHQREKIDKEIELHRILHHKHVVQFYHYFEDKENIYILLEYCSRRSMAHILKARKVLTEPEVRYYLRQIVSGLKYLHEQEILHRDLKLGNFFINEAMELKVGDFGLAARLEPLEHRRRTICGTPNYLSPEVLNKQGHGCESDIWALGCVMYTMLLGRPPFETTNLKETYRCIREARYTMPSSLLAPAKHLIASMLSKNPEDRPSLDDIIRHDFFLQGFTPDRLSSSCCHTVPDFHLSSPAKNFFKKAAAALFGGKKDKARYIDTHNRVSKEDEDIYKLRHDLKKTSITQQPSKHRTDEELQPPTTTVARSGTPAVENKQQIGDAIRMIVRGTLGSCSSSSECLEDSTMGSVADTVARVLRGCLENMPEADCIPKEQLSTSFQWVTKWVDYSNKYGFGYQLSDHTVGVLFNNGAHMSLLPDKKTVHYYAELGQCSVFPATDAPEQFISQVTVLKYFSHYMEENLMDGGDLPSVTDIRRPRLYLLQWLKSDKALMMLFNDGTFQVNFYHDHTKIIICSQNEEYLLTYINEDRISTTFRLTTLLMSGCSSELKNRMEYALNMLLQRCN
- Fold Change in Percent Synuclein Phosphorylation, HEK-293 overexpression [1]: 21.2 fold
- PLK2 activity in vitro, autoradiography [1]: PLK2 was found to be more active against wild-type alpha synuclein than beta synuclein
- Proportion of total synuclein that is phoshorylated at ser-129, HEK-293 overexpression, ELISA [1]: 42.3%
- S129 phosphorylation, immunoblot (11A5), kinase:AS 1:200 molar [1]: Prominent signals came from GRK6, CKI, CKII and PLK2
- S129 phosphorylation, immunoblot (11A5), rank of signal [1]: CKI>GRK6>PLK2>GRK4>GRK5>GRK2
- extent of S129 phosphorylation by mass spectrometry after co-expression in bacteria [1]: more than 95% phosphorylated
- in vitro biochemical assay, phosphorylation of synuclein [1]: PLK2 and PLK3 having extremely robust phosphorylation of synuclein
- in vitro kinase reaction, phosphorylation of alpha-synuclein at serine 129 [1]: capable of phosphorylating alpha-synuclein specifically at serine 129 and did not phosphorylate serine 87 in vitro
- phospho ser-129 level in vitro, normalised for molarity [1]: roughly equivalent levels of phospho ser-129 between CKI, GRK6 and PLK2
- PLK2 activity in vitro, autoradiography [2]: the mutant alpha-synucleins were phosphorylated more at a given concentration (especially at lower concentrations) than WT
- PLK2 activity in vitro, autoradiography [3]: the mutant alpha-synucleins were phosphorylated more at a given concentration (especially at lower concentrations) than WT
- PLK2 activity in vitro, autoradiography [4]: the mutant alpha-synucleins were phosphorylated more at a given concentration (especially at lower concentrations) than WT
- PLK2 activity in vitro, autoradiography (beta synuclein, Q16143): minimally against beta synuclein

B4: MET (protein)
chain: KKRKQIKDLGSELVRYDARVHTPHLDRLVSARSVSPTTEMVSNESVDYRATFPEDQFPNSSQNGSCRQVQYPLTDMSPILTSGDSDISSPLLQNTVHIDLSALNPELVQAVQHVVIGPSSLIVHFNEVIGRGHFGCVYHGTLLDNDGKKIHCAVKSLNRITDIGEVSQFLTEGIIMKDFSHPNVLSLLGICLRSEGSPLVVLPYMKHGDLRNFIRNETHNPTVKDLIGFGLQVAKGMKYLASKKFVHRDLAARNCMLDEKFTVKVADFGLARDMYDKEYYSVHNKTGAKLPVKWMALESLQTQKFTTKSDVWSFGVLLWELMTRGAPPYPDVNTFDITVYLLQGRRLLQPEYCPDPLYEVMLKCWHPKAEMRPSFSELVSRISAIFSTFIGEHYVHVNATYVNVKCVAPYPSLLSSEDNADDEVDTRPASFWETS
- in vitro kinase reaction, phosphorylation of alpha-synuclein [1]: shown to be incapable of directly phosphorylating alpha-synuclein

B5: CDC7 cell division cycle 7-like 1 (CDC7L1) (protein)
chain: MEASLGIQMDEPMAFSPQRDRFQAEGSLKKNEQNFKLAGVKKDIEKLYEAVPQLSNVFKIEDKIGEGTFSSVYLATAQLQVGPEEKIALKHLIPTSHPIRIAAELQCLTVAGGQDNVMGVKYCFRKNDHVVIAMPYLEHESFLDILNSLSFQEVREYMLNLFKALKRIHQFGIVHRDVKPSNFLYNRRLKKYALVDFGLAQGTHDTKIELLKFVQSEAQQERCSQNKSHIITGNKIPLSGPVPKELDQQSTTKASVKRPYTNAQIQIKQGKDGKEGSVGLSVQRSVFGERNFNIHSSISHESPAVKLMKQSKTVDVLSRKLATKKKAISTKVMNSAVMRKTASSCPASLTCDCYATDKVCSICLSRRQQVAPRAGTPGFRAPEVLTKCPNQTTAIDMWSAGVIFLSLLSGRYPFYKASDDLTALAQIMTIRGSRETIQAAKTFGKSILCSKEVPAQDLRKLCERLRGMDSSTPKLTSDIQGHASHQPAISEKTDHKASCLVQTPPGQYSGNSFKKGDSNSCEHCFDEYNTNLEGWNEVPDEAYDLLDKLLDLNPASRITAEEALLHPFFKDMSL
- in vitro kinase reaction, phosphorylation of alpha-synuclein [1]: shown to be incapable of directly phosphorylating alpha-synuclein
